Experiment [1] concerns the target HLA-A*6802 (human). The note with it: remark: other sources report otherwise.
The target of experiment [2] is HLA-A*0206 (human). The settings on record: remark: other sources report otherwise.
For experiment [3], the target named is HLA-A*6802 (human). The experiment is described as follows: inhibition of 125I probe peptide binding to purified HLA. The settings on record: remark: other sources report otherwise.
Experiment [4] concerns the target HLA-A*0206 (human). The experiment is described as above. The note with it: remark: other sources report otherwise.
The target of experiment [5] is HLA-A*0203 (human). The experiment is described as above. The note with it: remark: other sources report otherwise.
In experiment [6] the target is HLA-A*0201 (human). The experiment is described as above. The note with it: remark: other sources report otherwise.
Experiment [7] deals with HLA-A*0202 (human). Nature of the experiment: competition with 125I-labelled standard peptide for purified HLA. The settings on record: remark: other sources report otherwise.
Experiment [8] concerns the target HLA-A*6802 (human). The experiment is described as follows: competition with 125I probe peptide on purified HLA, gel filtration. The settings on record: remark: other sources report otherwise.
Experiment [9] addresses HLA-A*0201 (human). The description is as above. The note with it: remark: other sources report otherwise.
The target in experiment [10] is HLA-A*0202 (human). Nature of the experiment: competition with 125I-labeled probe peptide for purified HLA, gel filtration. The settings on record: remark: other sources report otherwise.
For experiment [11], the target named is HLA-A*2401 (human). The settings on record: scale: ratio.
Experiment [12] addresses HLA-A*0203 (human). The settings on record: remark: other sources report otherwise.
For experiment [13], the target named is HLA-A*0206 (human). Nature of the experiment: competition with 125I probe peptide on purified HLA, gel filtration. The note with it: remark: other sources report otherwise. Background: In gel filtration, larger molecules generally elute earlier.
The target of experiment [14] is HLA-A*0203 (human). Described as above. The note with it: remark: other sources report otherwise.
Experiment [15] deals with HLA-A*0201 (human). The settings on record: remark: other sources report otherwise.
The target of experiment [16] is HLA-A*0202 (human). The settings on record: remark: other sources report otherwise.
Experiment [17] has as its target HLA-A*6802 (human). The experiment is described as follows: inhibition of 125I probe peptide binding to purified HLA, gel filtration. The note with it: remark: other sources report otherwise.
Experiment [18] deals with HLA-A*0206 (human). Described as above. The settings on record: remark: other sources report otherwise.
Experiment [19] addresses HLA-A*0203 (human). The description is as above. The note with it: remark: other sources report otherwise.
For experiment [20], the target named is HLA-A*0202 (human). The description is as above. The settings on record: remark: other sources report otherwise.
Experiment [21] has as its target HLA-A*0301 (human). The note with it: remark: other sources report otherwise.
The target of experiment [22] is HLA-A*0202 (human). The experiment is described as follows: competition with 125I probe peptide on purified HLA, gel filtration. The settings on record: remark: other sources report otherwise.
In experiment [23] the target is HLA-A*0206 (human). The experiment is described as follows: competition with 125I-labelled probe peptide on purified HLA. The note with it: remark: other sources report otherwise.
In experiment [24] the target is HLA-A*0203 (human). The description is as above. The note with it: remark: other sources report otherwise.
The target in experiment [25] is HLA-A*0202 (human). The experiment is described as above. The settings on record: remark: other sources report otherwise.
Experiment [26] addresses HLA-A*0201 (human). The experiment is described as above. The settings on record: remark: other sources report otherwise.
Experiment [27] deals with HLA-A*0201 (human). The experiment is described as follows: inhibition of 125I probe peptide binding to purified HLA, gel filtration. The note with it: remark: other sources report otherwise.
The target in experiment [28] is HLA-A*0206 (human). Nature of the experiment: competition with 125I-labeled probe peptide for purified HLA, gel filtration. The settings on record: remark: other sources report otherwise.
In experiment [29] the target is HLA-A*0203 (human). The settings on record: remark: other sources report otherwise. The source holds these as a separate data set.
For experiment [30], the target named is HLA-A*0202 (human). The settings on record: remark: other sources report otherwise. This is another data set of the same source.
Experiment [31] concerns the target HLA-A*1101 (human). The note with it: remark: other sources report otherwise.
In experiment [32] the target is HLA-A*0101 (human). The note with it: remark: other sources report otherwise.
The target of experiment [33] is HLA-A*6802 (human). The experiment is described as follows: competition with 125I-labeled probe peptide for purified HLA, gel filtration. The settings on record: remark: other sources report otherwise.
Experiment [34] deals with HLA-A*1101 (human). The note with it: remark: other sources report otherwise. The source holds these as a separate data set.

The IC50 is the concentration that inhibits the measured activity by half.

Where two headings read alike, the source gives them in different places.

With KVTEFMLCV [peptide 1418.21, HuK2.191.V9], the half-maximal inhibitory concentration (IC50) in [1] was determined as 6670 nM.
For FMLCAGLWV [peptide 1418.22, HuK2.195.V9], the concentration for half-maximal inhibition (IC50) in experiment [2] was 51 nM.
Turning to TLMSAMTNLA [Peptide 20.0312 … (PAP.112)], the IC50 in experiment [3] was 6670 nM; in experiment [4] it was 3700 nM; in [5], 37 nM; in experiment [6], 385 nM.
With ALFDIESKV [peptide 1129.08, PSM.711], the half-inhibitory concentration (IC50) in experiment [7] was 0.7 nM.
Take KLRELSELSV [Peptide 63.0048 … (PAP.234.V10)]: the values for the IC50 in experiment [8] and in experiment [9] were 1820 nM and 263 nM, respectively.
For the molecule VLAGGFFLL [Peptide 1126.10], the concentration for half-maximal inhibition (IC50) in experiment [10] was 0.2 nM.
Turning to VYNGLLPPY [PAP (Prostatic Acid Phosphatase) peptide, position 302, 9 amino acids], in experiment [11], the relative binding ratio (A*2401) was determined as 0.032.
As for VLAKELKFVV [Peptide 63.0034 … (PAP.30.V10)], the results for the half-inhibitory concentration (IC50) in [3] and in experiment [4] were 2290 nM and 86 nM, respectively.
Take FLRPRSLQCV [Peptide 1419.07, HuK2.165]: the IC50 in experiment [12] turned out to be 4 nM.
Turning to ALFPPEGVSI [Peptide 1419.6 … (PAP.122)], the IC50 in experiment [13] amounted to 2640 nM; in experiment [14], 133 nM; in experiment [9] it was 278 nM.
Turning to DLMLLRLSEPV [Peptide 1419.13, HuK2.120.V11], the IC50 in experiment [15] was found to be 50 nM.
As for VLAGGFFLL [peptide 1126.10, PSM.27], the IC50 in experiment [7] was 0.2 nM.
In [16], LLFFWLDRSV [peptide 1097.09, PAP.21] came in with an IC50 of 0.6 nM.
For ALDVYNGLL [Peptide 1177.02 … (PAP.299)], the 50% inhibitory concentration (IC50) in experiment [14] turned out to be 256 nM; in experiment [9] it was 73 nM.
As for TLSVTWIGV [Peptide 60.0217 (PSA.5.V9)], the IC50 in experiment [17] stood at 229 nM; in experiment [18], 712 nM; in [19], 40 nM; in experiment [20], 4.9 nM.
With VTKFMLCAGR [PSA 188 10-mer peptide …], in experiment [21], the relative binding ratio (IC50 of standard peptide / IC50 of test peptide) is 0.0003.
Take PLLLWQPIPV [Peptide 63.0042 … (PAP.134.L2)]: the half-inhibitory concentration (IC50) is 336 nM in [13], 47 nM in experiment [22] and 238 nM in [9].
Molecule MLLRLSEPAEV [Peptide 1389.12 (PSA.118.V11)] returned a 50% inhibitory concentration (IC50) in experiment [19] of 115 nM.
In the case of WVLTAAHCL [Kallikrein 59, 9 amino acids], the relative binding ratio in [23] was determined as 0.016; in experiment [24], 0.0001; in experiment [25] it was 0.0018; in experiment [26] it was 0.0003.
As for SLHLLSNDMCA [Peptide 1419.14, HuK2.175], the IC50 was determined as 73 nM in experiment [12] and 72 nM in [15].
For LMLLRLSEPA [Peptide 63.0014 (PSA.117)], the IC50 in experiment [17] is 5000 nM; in experiment [27], 200 nM.
On to RMMNDQLMFL [Peptide 1126.06], for which, in experiment [28], the IC50 was determined as 40 nM.
In turn, ALFPPEGVSV [peptide 1419.61, PAP.122.V10] showed a concentration for half-maximal inhibition (IC50) in experiment [16] of 1 nM.
GLHGQDLFGI [peptide 1166.11, PAP.196] came in with an IC50 in experiment [16] of 0.9 nM.
As to HLLSNDMCV [peptide 1418.20, HuK2.177.V9], the IC50 turned out to be 278 nM in experiment [29] and 102 nM in experiment [30].
As for WVLTAAHCI [PSA 55, 9 amino acids], the relative binding ratio in experiment [26] amounted to 0.0008.
Consider VTKFMLCAGR [PSA position 188, 10 amino acids], for which the relative binding ratio (IC50 of standard peptide / IC50 of test peptide) in experiment [31] came out at 0.012.
For RAVCGGVLVH [PSA peptide, position 43, 10 amino acids], in [21], the relative binding ratio (IC50 of standard peptide / IC50 of test peptide) came out at 0.011.
With SLLAKELKFV [Peptide 63.0033 … (PAP.29.L2)], the half-maximal inhibitory concentration (IC50) in experiment [3] was 6670 nM; in experiment [5], 3.8 nM.
As to VFRHGDRSPI [PAP (Prostatic Acid Phosphatase) peptide, position 41, 10 amino acids], the relative binding ratio (A*2401) in [11] is 0.0005.
Molecule ALFDIESKV [Peptide 1129.08] gave an IC50 in [10] of 0.7 nM.
Consider LTQLGMEQHY [PAP peptide, position 70, 10 amino acids], for which, in [32], the relative binding ratio (IC50 of standard peptide / IC50 of test peptide) was 0.62.
On to GVSIWNPILV [Peptide 63.0041 … (PAP.128.V10)], for which the IC50 in experiment [8] amounted to 2290 nM; in [13], 451 nM; in [22], 94 nM; in experiment [9], 250 nM.
For QLMFLERAFI [Peptide 1126.16], in experiment [33], the IC50 was found to be 30 nM.
For the molecule GLPEGDLVYV [Peptide 1389.22], the IC50 in experiment [33] amounted to 964 nM; in experiment [28], 112 nM.
For GVSIWNPIV [Peptide 60.0207 … (PAP.128.V9)], the IC50 in experiment [14] turned out to be 909 nM; in experiment [22], 269 nM; in [9], 455 nM.
For the molecule RAVCGGVLVH [PSA 43, 10 amino acids], in experiment [34], the relative binding ratio (IC50 of standard peptide / IC50 of test peptide) came out at 0.031.

The record behind these values is US20040037843A1.
